The values below come from CN117643628A (SHANGHAI JUNSHI BIOSCIENCES CO LTD; JUNMENG BIOSCIENCES CO …, dated 2024).

This experiment deals with SARS-COV-2野生型毒株Spike蛋白的RBD (SARS-COV-2野生型毒株, UniProt P0DTC2 319-541). The experiment in a line: BLI (Octet), antibody captured on Protein A probes, RBD at 15 nM and 60 nM in solution.

B1: HUR33变体 (antibody, human IgG1, kappa, V domains shown)
VH: QVQLVQSGSELKKPGASVKVSCKASGYTFTDYGMNWVRQAPGQGLEWMGWINTYSGEPTYADDFRGRFVFSLDTSVSTAYLQISSLKAEDTAVYYCARGGNWDWYFDVWGQGTLVTVSS
VL: DIQMTQSPSSLSASVGDRVTITCRASQSVSNFLHWYQQKPGKAPKLLIYYASQSISGVPSRFSGSGSGTDFTLTISSLQPEDFATYYCQQSNTWPLTFGQGTKLEIKR
notes: also called HUR33-1; HUR33 variant
Take B1: the binding result is reported as “binds”.
